Laboratory results taken from US20040001835A1, “Prevention or treatment of cancer using integrin alphavbeta3 antagonists in combination with other agents” (MedImmune, Inc., priority 2002, published 2004).

How the values were obtained:
Experiment in all cases: Immunohistochemical staining of placental trophoblasts
Format in all cases: binding
Conditions in all cases: frozen thin sections, antibody 10 μg/ml
[1] = test system: αvβ3 expressed on placenta (placental trophoblasts)
Method: (§1) Table 3. Immunohistochemical staining of placental trophoblasts. Placental tissue, a rich source of αvβ3, was collected either immediately after parturition or from freshly-sacrificed, late-term pregnant animals. Tissue fragments, approximately 1 cm^3, were frozen in OCT, and thin sections were stained with monoclonal antibodies (10 μg/ml) at Sierra Biomedical (Sparks, Nev.). Vitaxin® recognized αvβ3 expressed on human, monkey, guinea pig, hamster and rabbit placenta, while […] with human and monkey αvβ3. […] ND, not done.

[2] = molecular target: T1, αvβ3 expressed on placenta (placental trophoblasts) (Mus musculus, UniProt O54890)
T1 construct: from tissue; host or cells: placenta (frozen sections)
T1 sequence (O54890 26-787): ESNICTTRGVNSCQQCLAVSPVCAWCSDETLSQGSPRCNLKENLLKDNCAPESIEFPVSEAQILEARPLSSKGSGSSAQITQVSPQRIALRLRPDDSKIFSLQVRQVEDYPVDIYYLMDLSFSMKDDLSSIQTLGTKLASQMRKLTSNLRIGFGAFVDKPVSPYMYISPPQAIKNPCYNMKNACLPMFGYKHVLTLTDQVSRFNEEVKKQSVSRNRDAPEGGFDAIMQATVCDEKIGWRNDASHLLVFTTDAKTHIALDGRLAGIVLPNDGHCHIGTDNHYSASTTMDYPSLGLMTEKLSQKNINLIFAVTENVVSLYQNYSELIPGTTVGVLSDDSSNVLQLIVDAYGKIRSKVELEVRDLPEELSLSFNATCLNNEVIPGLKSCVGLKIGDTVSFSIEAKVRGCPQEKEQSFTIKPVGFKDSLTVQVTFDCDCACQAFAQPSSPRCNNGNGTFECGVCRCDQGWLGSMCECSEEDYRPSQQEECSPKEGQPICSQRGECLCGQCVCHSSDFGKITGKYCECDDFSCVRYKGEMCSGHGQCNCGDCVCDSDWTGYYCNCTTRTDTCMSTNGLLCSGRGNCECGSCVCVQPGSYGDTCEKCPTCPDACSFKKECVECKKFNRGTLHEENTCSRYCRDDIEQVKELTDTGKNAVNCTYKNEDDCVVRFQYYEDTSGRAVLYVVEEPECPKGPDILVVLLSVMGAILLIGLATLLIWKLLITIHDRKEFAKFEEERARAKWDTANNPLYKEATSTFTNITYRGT
T1 sequence (P43406 31-885 partner limits assumed): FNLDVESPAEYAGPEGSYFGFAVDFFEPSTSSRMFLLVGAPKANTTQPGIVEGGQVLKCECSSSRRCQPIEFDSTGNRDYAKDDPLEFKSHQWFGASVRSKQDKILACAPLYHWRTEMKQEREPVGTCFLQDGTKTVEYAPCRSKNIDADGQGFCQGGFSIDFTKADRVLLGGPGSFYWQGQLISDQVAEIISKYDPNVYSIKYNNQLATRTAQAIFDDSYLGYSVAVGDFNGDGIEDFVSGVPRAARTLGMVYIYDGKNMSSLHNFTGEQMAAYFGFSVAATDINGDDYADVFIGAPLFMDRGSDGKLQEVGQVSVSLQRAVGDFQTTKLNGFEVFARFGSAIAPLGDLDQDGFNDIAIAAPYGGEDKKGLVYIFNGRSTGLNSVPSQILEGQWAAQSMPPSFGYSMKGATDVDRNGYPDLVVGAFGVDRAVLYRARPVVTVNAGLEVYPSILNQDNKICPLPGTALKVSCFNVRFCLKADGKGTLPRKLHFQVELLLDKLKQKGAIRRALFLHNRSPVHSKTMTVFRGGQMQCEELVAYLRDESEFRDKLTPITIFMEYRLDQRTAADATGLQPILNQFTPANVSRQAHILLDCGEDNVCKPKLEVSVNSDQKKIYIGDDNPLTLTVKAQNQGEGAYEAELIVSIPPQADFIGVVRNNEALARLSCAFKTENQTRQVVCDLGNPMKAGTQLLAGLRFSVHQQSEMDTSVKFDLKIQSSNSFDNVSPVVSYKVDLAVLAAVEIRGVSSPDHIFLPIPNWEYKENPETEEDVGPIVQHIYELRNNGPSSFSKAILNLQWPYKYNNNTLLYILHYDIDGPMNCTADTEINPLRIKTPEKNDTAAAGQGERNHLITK
T1 sequence (P43406 887-1044 partner limits assumed): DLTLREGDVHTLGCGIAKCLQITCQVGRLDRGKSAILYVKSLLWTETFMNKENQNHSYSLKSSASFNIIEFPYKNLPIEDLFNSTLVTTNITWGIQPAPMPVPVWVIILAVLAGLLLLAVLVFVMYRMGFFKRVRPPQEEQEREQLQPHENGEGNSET
Method: as §1

[3] = molecular target: T2, αvβ3 expressed on placenta (placental trophoblasts) (Homo sapiens, UniProt P05106)
T2 construct: from tissue; host or cells: placenta (frozen sections)
T2 sequence (P05106 27-788): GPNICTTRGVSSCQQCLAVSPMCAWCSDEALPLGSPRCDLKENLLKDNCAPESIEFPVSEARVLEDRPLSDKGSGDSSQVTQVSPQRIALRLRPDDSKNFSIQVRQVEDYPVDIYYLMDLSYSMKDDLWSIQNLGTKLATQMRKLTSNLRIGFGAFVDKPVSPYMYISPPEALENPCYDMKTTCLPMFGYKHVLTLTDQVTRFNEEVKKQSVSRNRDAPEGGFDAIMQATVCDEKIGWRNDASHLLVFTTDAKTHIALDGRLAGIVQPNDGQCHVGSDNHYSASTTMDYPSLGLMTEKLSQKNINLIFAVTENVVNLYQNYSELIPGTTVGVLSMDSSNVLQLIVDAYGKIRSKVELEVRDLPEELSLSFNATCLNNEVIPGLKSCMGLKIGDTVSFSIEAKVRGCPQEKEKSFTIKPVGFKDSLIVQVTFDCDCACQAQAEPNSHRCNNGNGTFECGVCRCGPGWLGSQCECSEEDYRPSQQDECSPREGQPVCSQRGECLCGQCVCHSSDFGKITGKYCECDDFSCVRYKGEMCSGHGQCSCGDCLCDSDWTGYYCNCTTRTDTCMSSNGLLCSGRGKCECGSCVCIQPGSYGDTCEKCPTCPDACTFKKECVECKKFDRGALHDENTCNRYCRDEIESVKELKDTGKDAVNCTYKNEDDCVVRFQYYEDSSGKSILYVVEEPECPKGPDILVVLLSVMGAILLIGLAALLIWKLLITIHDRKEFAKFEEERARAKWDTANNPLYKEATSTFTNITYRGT
T2 sequence (P06756 31-889 partner limits assumed): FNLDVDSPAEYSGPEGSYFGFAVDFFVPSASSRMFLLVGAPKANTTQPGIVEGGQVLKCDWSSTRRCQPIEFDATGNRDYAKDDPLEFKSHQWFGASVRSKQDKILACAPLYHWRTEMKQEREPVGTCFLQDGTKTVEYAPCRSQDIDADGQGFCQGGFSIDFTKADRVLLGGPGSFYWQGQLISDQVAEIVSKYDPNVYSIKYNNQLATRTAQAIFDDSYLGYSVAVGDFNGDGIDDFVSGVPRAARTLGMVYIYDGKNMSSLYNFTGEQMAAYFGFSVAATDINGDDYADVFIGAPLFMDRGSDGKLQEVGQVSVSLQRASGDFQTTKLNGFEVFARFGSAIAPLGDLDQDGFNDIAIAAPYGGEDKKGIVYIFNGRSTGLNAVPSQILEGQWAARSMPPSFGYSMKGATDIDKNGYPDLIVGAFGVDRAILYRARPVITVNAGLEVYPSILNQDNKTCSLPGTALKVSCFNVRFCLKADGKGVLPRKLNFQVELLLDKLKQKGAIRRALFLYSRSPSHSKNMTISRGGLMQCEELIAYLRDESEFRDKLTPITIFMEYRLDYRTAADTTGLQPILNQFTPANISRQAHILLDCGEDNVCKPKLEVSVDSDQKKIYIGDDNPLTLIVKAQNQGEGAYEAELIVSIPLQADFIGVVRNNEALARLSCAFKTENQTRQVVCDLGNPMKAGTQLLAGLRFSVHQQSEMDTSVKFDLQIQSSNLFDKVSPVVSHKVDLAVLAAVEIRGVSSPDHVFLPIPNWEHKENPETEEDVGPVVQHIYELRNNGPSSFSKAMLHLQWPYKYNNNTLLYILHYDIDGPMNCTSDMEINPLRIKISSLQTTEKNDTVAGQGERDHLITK
T2 sequence (P06756 891-1048 partner limits assumed): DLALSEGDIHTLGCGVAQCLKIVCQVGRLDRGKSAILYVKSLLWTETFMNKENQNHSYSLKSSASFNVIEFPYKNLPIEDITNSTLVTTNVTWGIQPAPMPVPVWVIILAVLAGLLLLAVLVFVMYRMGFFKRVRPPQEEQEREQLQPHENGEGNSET
Method: as §1

[4] = molecular target: T3, αvβ3 expressed on placenta (placental trophoblasts) (Rattus norvegicus, UniProt Q8R2H2)
T3 construct: from tissue; host or cells: placenta (frozen sections)
T3 sequence (Q8R2H2 26-787): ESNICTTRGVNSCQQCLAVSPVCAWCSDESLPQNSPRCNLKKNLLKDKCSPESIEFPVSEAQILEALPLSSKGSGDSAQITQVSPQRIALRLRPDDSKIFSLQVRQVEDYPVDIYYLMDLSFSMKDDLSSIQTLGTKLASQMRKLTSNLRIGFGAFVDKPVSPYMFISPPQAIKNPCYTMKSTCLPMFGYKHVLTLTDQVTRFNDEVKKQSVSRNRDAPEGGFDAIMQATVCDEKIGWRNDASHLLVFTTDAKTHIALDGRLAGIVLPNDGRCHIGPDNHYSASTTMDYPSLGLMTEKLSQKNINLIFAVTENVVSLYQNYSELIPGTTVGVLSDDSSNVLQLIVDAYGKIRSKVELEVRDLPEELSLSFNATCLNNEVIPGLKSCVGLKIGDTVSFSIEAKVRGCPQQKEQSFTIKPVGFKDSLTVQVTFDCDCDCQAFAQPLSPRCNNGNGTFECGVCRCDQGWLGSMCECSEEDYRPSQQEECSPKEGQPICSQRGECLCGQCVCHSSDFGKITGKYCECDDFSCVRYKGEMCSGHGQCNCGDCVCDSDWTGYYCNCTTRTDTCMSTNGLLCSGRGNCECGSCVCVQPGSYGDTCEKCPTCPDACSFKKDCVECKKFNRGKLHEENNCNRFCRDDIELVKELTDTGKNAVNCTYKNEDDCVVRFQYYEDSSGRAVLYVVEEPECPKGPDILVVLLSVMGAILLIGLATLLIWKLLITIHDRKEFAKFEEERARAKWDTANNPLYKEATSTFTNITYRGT
Method: as §1

B1: Vitaxin®: humanized blocking monoclonal antibody that binds Integrin αVβ3 (MEDI-522, MedImmune); humanized and optimized version of LM609 (antibody, chains of the INN, looked up, V domains shown)
VH: QVQLVESGGGVVQPGRSLRLSCAASGFTFSSYDMSWVRQAPGKGLEWVAKVSSGGGSTYYLDTVQGRFTISRDNSKNTLYLQMNSLRAEDTAVYYCARHLHGSFASWGQGTTVTVSS
VL: EIVLTQSPATLSLSPGERATLSCQASQSISNFLHWYQQRPGQAPRLLIRYRSQSISGIPARFSGSGSGTDFTLTISSLEPEDFAVYYCQQSGSWPLTFGGGTKVEIK
In the case of B1, the “Staining of Placental Trophoblasts” value ([1]; Cynomolgus monkey placenta) is reported as “recognized”, the “Staining of Placental Trophoblasts” value ([1]; Guinea pig placenta) is reported as “recognized” and the “Staining of Placental Trophoblasts” value ([1]; Hamster placenta) is reported as “recognized”. The “Staining of Placental Trophoblasts” value ([1]; Rabbit placenta) was “recognized”, the “Staining of Placental Trophoblasts” value [2] was “Negative” and the “Staining of Placental Trophoblasts” value [3] was “recognized”. The “Staining of Placental Trophoblasts” value [4] was “Negative”.
